assay: soluble on expression in E. coli; label from the status in PepcDB or PDB records

Row | Sequence | soluble on expression in E. coli
1 | MSIKIGLLGFGTVASGIPFLLKENGEKVFAASRDQLEIAKVLVKDDEEKDRLIAAGNDYNFVTNVDEILNDEEIQIVVELMGRIEPARTFITKALEAGKNVVSANKDLIATHGKELIALAQDKGVAFYYEAAVAGGIPILRTLANSLTSDKVTRILGVLNGTSNFMMTKMVDEGWSYEDALKTAQELGYAESDPTNDVEGYDAAYKAVILSQFGFGATIDFDDVSHKGITNISTDDVAVAQELGYVIKLVGDVREVESGISAEVSPTFLPKNHPLASVNDVMNAVFVESIGIGESMYYGPGAGQKPTATSVLADIIRIARRLSDGNVGKPFNEFRRDLPLANPADVKSNYYFALDTPDEKGKILHLSEIFNSEDISFEQVLQQKANGTTARIVVITHAMSKTQLKAVTEKLEAAEDFTVVNTLKVLSNLEHHHHHH | soluble
2 | STSLPQISTLMREKSVENKLKVKAKDDHMVPSGLYEVRAIQLPGGSWRHYYVDHSSKETYWILPYSHPDGASSHPLEKLPVYLPSYEECVDETNPLAVPEVCSPARD | soluble
3 | MQDILFDFISTYISLTEDEKNALLSLDLFRSVPKGTILLKEGQKSQESYFVLKGCIRIYYIIDGEEKTTAFYTEMDALTPPCVIHNAPSEYFISCIEDSILTVSNLEMEAEINSKFPKFELMCRMLSEELLAKQQIDFDAFKTSSPEQRYLNVLQNRPDLIQRVPQHQLASFLGIKPQSLSRLRARIVDKKS | not soluble
4 | MGHHHHHHSHVEIIQKVVVKQILTEASKQELIEYYTEQKRQIEQECDQLHFEQKKMERKSKFQPERVADYFTHELDIRREKKKLIQFQMEQLEVLELGSEIREREMETIIDVQVGDKWDKSIFDKTIVVKDGIIVEIR | soluble
5 | MNFFKRKFSFSEDEGEPMDDVNSGPPSSFSFQSIANKVSNTISAPTSPAKSRESLAAALERSLNHDRSRGEPLMKDAKVLLVIDSHHVDWSKYFRNHTEYAIRVEQGDIDELDVMCTEKNCTVELNTPGKDVRTFTPSAVFLGAGATRCAQLKTITRAFIAAHIPFLNSHTSAVAFLDRNNLKKQLKKITLSDGASIPMLPIVHYPHFHKFHQSQSSTYPMVVSVNEGFQGIGKIKVNNHEELCDVEGMLQIMSKGDTEVEVQPFVDAKYDLHIQKIGHEYKTFIRRGICKHWKSNVGSSVLEQISTCERHKKYLKAITDHVGPMHICSIDILVSKEGREFVHDVNDVIAYFGESAEDDRRAASLLLRALVAPRITSPIAAEPPATSPTTSAVTNGHGNHGPAPAVPTRRLPPHPSSSSAAPPRGHMSDKVESRHKDHYDPPPQIPRTGSRESVSYVDDTMGQLKRTFAGFFGE | not soluble
6 | MDEYNKNPEENDKPEYDMKMEALLKVLNREIPIKAHAHRADDILTAIRIAKEFGLRLTIEHCTEGHLIKDILAEEGVSAIVGSSLTDRSKVELRNLSLKTPGILAKAGVKVAIMTDHPCTPIQYLILCAAMAVREGMDEMEALRAVTINAAELTGIADRVGSIEVGKDADIAIYDGHPFDIRSKVSTTIINGKVVYERKKHERD | not soluble
7 | MGSDKIHHHHHHMKKLLLTAAITLTMPFAAHAGSEFVEGDATLAGEAELGATLTTGNTDTSSFKARLALKQELGDWENEYVFEGLYKEDTEEVTAKRYFLGVQGDYQINDVSYLFANTNYEVDPFTGYDFTSTTSAGYGHRFIDTDRMSLKAEAGPGYIYQQLDEESALAEGYDSDDSVVAHAVIDFQTKISDSSKFQQKFVADWGSKLDARSETSLTANIVGALAMKFAVIVRYNSEPLDDKESTDTETNMTLLYAF | not soluble
8 | MARYEEVSVSGFEEFHRAVEQHNGKTIFAYFTGSKDAGGKSWCPDCVQAEPVVREGLKHISEGCVFIYCQVGEKPYWKDPNNDFRKNLKVTAVPTLLKYGTPQKLVESECLQANLVEMLFSED | soluble
9 | FAADLNSNLNLFYTPSEIVNGKTDTGVKPEAGQRIRVGGMVTVGSMVRDPNSLHVQFAVHDSLGGEILVTYDDLLPDLFREGQGIVAQGVLGEDGKLAATEVLAKHDENYMPPEVAEAMGQKHEKLDYSQQKSATQ | soluble
10 | MGSDKIHHHHHHVLVLVLFTTVDRTPYKQMPYYTSMMKALDTFHVDVQHKKGDTLRAAWYKVALTPHTFPHPLAGYGLRKKAVSVNDTTFVRTFIFDNAKTRVAYVSLDLLIFPPALKDRVRAELETTYNLQVFLTATHTHSAPGGWEPKIAGRVLAGEYSDEYVALLFNAINECISKAIPRLQKVEQAYIRVSAPEAVQNRLKGADAPKDSFIRGIKFRNKSGEEACLFTFAAHANCLNSDVDYVSADYPGIVSAELEKRKWASFVSYAAGAVGSHAPTFETILDGKLRADTVSSILVEKLQETKAAYAYTNQLYYHRLPLFLRDAHLRVEKDIRIRPWVFNTILGKDIPDIQIIEIGETVLLGMPCDYSGELMPPLEKICADNQSNFMLSGFNGGYIGYITDDACYDWDRGETMDMNWFGPYNAAYLTEVNTVILKKVLTGE | not soluble
11 | MSLAAVQVVGSWPSVQPREAPREAIPERGNGFRLLSARLCALRPDDSSSARTEIHLLFDQLISENYSEGSGVAPEDVSALLVQACRLVPLNQNHLVSKVSQLIHHLLNRLQVIVDEQHLDFLLAYTISAIHQCSSWTHREILQALAALVYCNGSKCQKYLPELLGNTGLLMKLSDLAQSDPEVRRAAVHCMANLCLSVPGQPYLEEPYQNVCFQAFLTILQSPKSSDMDDITFCMLLQNALKGIQSLLNGGRMKLTQTDELGALLAVLKKFMFHGLPGLNIEMPTVLYPTPLPQYDGRTPIKEGHHHHHH | not soluble
12 | MHMSEANHKNIVVVGAGIIGTSVATMLSKVSPNWHIDMFERLEGAGIESSNENNNAGTGHAALCELNYTVEQDDGSIDASKAQEINEQFELSRQFWGNLVKNGDISNPEEFIQPLPHISFVMGPTNVNFLRKRYETLKTLPMFDTIEYTEDMETMRKWMPLMMENREPGHQMAASKIDEGTDVNYGALTRKLAHYLEQKSNVSLKYNHDVVDLTQREDGKWEVVVENRETKEKVTKIADKVFIGAGGHSIPLLQKSGVKQREHLGGFPISGQFLRCTNPDIIKQHAAKVYSKEPQGKPPMTVPHLDTRYINGKQTLLFGPYANIGPKFLKFGSNLDLFESIKPYNITTMLASAVKNVPLIKYSIDQMIKTKEGCMNYLRTFIPDAKDEDWELYTAGKRVQVIKDSEQHGKGFVVFGTEVVNSDDNSMIALLGESPGASTSLSVVLEVLEKNFADDKEAWEPVVKEMVPTYGRSLINDEKLMRETRRETSKNLHLNRMAGDPLEHHHHHH | soluble
13 | MSLDSSMKISKVDNIGNHEDIEVNNAEIALSLASQMVGSGEEVVSMSIKYSKERVAFGKPIGSYQAIKHRVVNDAIDVELARSLILEAAENIKYAWIAKDLANKKIPKAILSGIQVHGGIGFTDDLDIHLHLRRALTLSKLYNSKVNISEFLQPIEGHHHHHH | not soluble
14 | MLRRCSVLLNDPPLVSGGPVVGLMRDTGTRTTIRPSIMDAQIAQSALEVKMSSLLAREMQAEKMEAEREPPLKRKWVKAPVSQLSTSLSRRDWFRLMSFNMMTDAWGPGHTTPVEAVRVRVPEFTRNPECDDPNACCDYDPSIDKEFPPFLTPEHRRKHLVELLRCYDPDIACLNEVKRTFFNTELWRYVRFLGYGTLYQSSRGAQVRALRKGDNAAAPSNQGKIAEEEDIGNVLLFHKGRFFPLMMPGRDIGQRFHFAHFVGMRDKVTNMTLYVACVQLTAGATAEAADVRLHEARQVLTILDALGRNDADRSHQSHIVCGDLNNQADDEPCVELLRDRFFSTHDLVGGPRWTAWHYRDDARAAAYDTYYTKNVEQAHRSDKAYQAEEEIHRFRRKDAGGYHGVFSKVRLVRDEIAARAHKKQQQQLTTPKTAPEVATPPPADTVAAAPAPSPASAPAPSDTAVRVDQLALLKESRKAKGITYNTQDFIFYDPSTLALHQVLDVPEDEEVNEAQLFPNHKLPSHHLPLFIDISWIDSFPDVAARTLKE | not soluble
15 | MNEFEDLLNSVSEVNPGDVVTAEVLTVDGEQANLVIDGTGVEAVLTLRELTNDRNADINDFVKAGDKVEVLVLRQVVGKDTDTVTFLVSKKRLEARKAWDKLVGREGDVVTVKGTRAVKGGLSVEFEGLRGFIPASMIDTRFVRNTEKFVGQQFEAKIKEIDPSENRFILSRRDVVEAAAAKAREEVFSRLAVGDIVTGTVARLTSFGAFIDLGGVDGLVHITELSHERNVSPKSVVTVGEEIQVKVLAIDEEAGRVSLSLKATTPGPWDGVEQKLAAGDVIEGKVKRLTDFGAFVEVLPGIDGLVHISQISHKRVENPKDVLSVGQDVTVKVLDVNTADERVSLSIKALEERPAQDESNGEKRQSRPRRQKRQDKRDYELPETQTGFSMADLFGDIELLEHHHHHH | soluble

— the DeepSol protein solubility set
